Reference: article PMC9427005 (Science (New York, N.y.), 2022)

Target: SARS-CoV-2 Wuhan-Hu-1 RBD for SPR binding assays (SARS-CoV-2 Wuhan-Hu-1 (NC_045512.2), UniProt P0DTC2)
Experiment: SPR
Settings: both partners purified

Binder | Kd [nM] | koff [s⁻¹] | kon [M⁻¹ s⁻¹]
COV2-2196 IgG1 (antibody, V domains shown, IgG1) VH: QMQLVQSGPEVKKPGTSVKVSCKASGFTFMSSAVQWVRQARGQRLEWIGWIVIGSGNTNYAQKFQERVTITRDMSTSTAYMELSSLRSEDTAVYYCAAPYCSSISCNDGFDIWGQGTMVTVSS VL: not shown | 1.09 | 0.0124 | 1.14e+07
CT-P59 IgG1 (antibody, V domains shown, IgG1) VH: QITLKESGPTLVKPTQTLTLTCSFSGFSLSTSGVGVGWIRQPPGKALEWLALIDWDDNKYHTTSLKTRLTISKDTSKNQVVLTMTNMDPVDTATYYCARIPGFLRYRNRYYYYGMDVWGQGTTVTVSS VL: ELVLTQPPSVSAAPGQKVTISCSGSSSNIGNNYVSWYQQLPGTAPKLLIYDNNKRPSGIPDRFSGSKSGTSATLGITGLQTGDEADYYCGTWDSSLSAGVFGGGTELTVL | 0.066 | 0.000365 | 5.54e+06
LY-CoV555 IgG1 (antibody, V domains shown, IgG1) VH: QVQLVQSGAEVKKPGSSVKVSCKASGGTFSNYAISWVRQAPGQGLEWMGRIIPILGIANYAQKFQGRVTITADKSTSTAYMELSSLRSEDTAVYYCARGYYEARHYYYYYAMDVWGQGTAVTVSS VL: not shown | 1.48 | 0.00117 | 792000
REGN10933 IgG1 (antibody, V domains shown, IgG1) VH: QVQLVESGGGLVKPGGSLRLSCAASGFTFSDYYMSWIRQAPGKGLEWVSYITYSGSTIYYADSVKGRFTISRDNAKSSLYLQMNSLRAEDTAVYYCARDRGTTMVPFDYWGQGTLVTVSS VL: DIQMTQSPSSLSASVGDRVTITCQASQDITNYLNWYQQKPGKAPKLLIYAASNLETGVPSRFSGSGSGTDFTFTISGLQPEDIATYYCQQYDNLPLTFGGGTKVEIK | 0.689 | 0.00364 | 5.29e+06
S2X35 IgG (antibody, V domains shown) VH: QVQLVQSGAEVKKPGASVKVSCKASGYTFTNYGISWVRQAPGQGLEWMGWISAYKGNTNYAQKLQGRVTMTTDTSTSTAYMELRSLRSDDTAVYYCARPDYQVLGYDFWIGYYGMDVWGQGTTVIVSS VL: QSVLTQPPSVSGAPGQRVTISCTGSSSNIGAGYDVHWYQQLPGTAPKLLIYGNTNRPSGVPDRFSGSKSGTSASLAITGLQAEDEADYYCQSYDSSLSGSEVVFGGGTKLTVL | 0.268 | 0.000153 | 570000
LY-CoV016 IgG1 (antibody, V domains shown, IgG1) VH: EVQLVESGGGLVQPGGSLRLSCAASGFTVSSNYMSWVRQAPGKGLEWVSVIYSGGSTFYADSVKGRFTISRDNSMNTLFLQMNSLRAEDTAVYYCARVLPMYGDYLDYWGQGTLVTVSS VL: not shown | 13.8 |  | 
REGN10987 IgG1 (antibody, V domains shown, IgG1) VH: QVQLVESGGGVVQPGRSLRLSCAASGFTFSNYAMYWVRQAPGKGLEWVAVISYDGSNKYYADSVKGRFTISRDNSKNTLYLQMNSLRTEDTAVYYCASGSDYGDYLLVYWGQGTLVTVSS VL: QSALTQPASVSGSPGQSITISCTGTSSDVGGYNYVSWYQQHPGKAPKLMIYDVSKRPSGVSNRFSGSKSGNTASLTISGLQSEDEADYYCNSLTSISTWVFGGGTKLTVL | 12.4 |  | 
ADI-58125 IgG1 (antibody, V domains shown, IgG1) VH: EVQLVESGGGLVKPGGSLRLSCAASGFTFSSYYMNWVRQAPGKGLEWVSSISEDGYSTYYPDSLKGRFTISRDSAKNSLYLQMNSLRADDTAVYYCARDFSGHTAWAGTGFEYWGQGTLVTVSS VL: QSVLTQPPSVSGAPGQRITISCTGSSSNIGAGYDVHWYQQLPGTAPKLLIYGSSSRNSGVPDRFSGSKSGTSASLAITGLQAEDEADYYCQSYDSSLSVLYTFGTGTKVTVL | < 0.01 | 7.17e-08 | 1.15e+06
